According to patent US20240327510A1, “DRUG FOR PREVENTING, ALLEVIATING OR TREATING MUCOSAL ADHESION AND USE THEREOF” (SHANGHAI SYNVIDA BIOTECHNOLOGY CO. LTD., priority 2021, published 2024):

Columns and labels:
[1] = tested on: humanized Pear1 mice; experiment: Peritoneal adhesion model, BhatiaDS score; format: in vivo; parameters: key to BhatiaDS score: grade 0: no adhesion; grade I: adhesive area of the area treated in the caecums of vermiform/total area of the treated area<50%, easy for blunt separation; grade II: above-mentioned area ratio≥50%, easy for blunt dissection; Grade III: Regardless of the size of the adhesive area, as long as the adhesion is difficult to separate, blunt separation can still be performed, but the intestinal wall is obviously damaged after separation; Grade IV: Regardless of the size of the adhesive area, as long as the adhesion is firm and can no longer be bluntly separated, required sharp separation
Source text: The model was made in humanized mice within 3 cm from the caecums of vermiform in peritoneal cavity, following the methods in the literature (Zhiliang Zhang, et al., Characteristics of genesis and development of peritoneal adhesion by different causes: experiment with rats, Chinese Journal of Medicine, 2005). The mice were divided into 3 groups. groups, with 20 mice in each group: A, control group with normal saline; B, prophylactic intraperitoneal injection of anti-human Pear1 monoclonal antibody (including LF2 or hLF105 antibody) 0.5 mg/kg, once a week; C, prophylactic intraperitoneal injection of anti-human Pear1 monoclonal antibody 1 mg/kg, once a week. After the mice were euthanized at 2 time points of 2 weeks and 4 weeks, an inverted “U”-shaped incision was selected to enter the abdomen, avoiding the original surgical incision. […] And the degree of adhesion in the peritoneal adhesion model was evaluated. […]
According to the scoring standard of BhatiaDS, grade 0: no adhesion; grade I: adhesive area of the area treated in the caecums of vermiform/total area of the treated area<50%, easy for blunt separation; grade II: above-mentioned area ratio≥50%, easy for blunt dissection; Grade III: Regardless of the size of the adhesive area, as long as the adhesion is difficult to separate, blunt separation can still be performed, but the intestinal wall is obviously damaged after separation; Grade IV: Regardless of the size of the adhesive area, as long as the adhesion is firm and can no longer be bluntly separated, required sharp separation. Each mouse was scored by 3 people respectively, and the average value was taken as the score of adhesion in this sample.

[2] = tested on: humanized Pear1 mice; experiment: Peritoneal adhesion model, determination of hydroxyproline in tissues; format: in vivo; conditions: versus control group
Source text: (§1) The model was made in humanized mice within 3 cm from the caecums of vermiform in peritoneal cavity, following the methods in the literature (Zhiliang Zhang, et al., Characteristics of genesis and development of peritoneal adhesion by different causes: experiment with rats, Chinese Journal of Medicine, 2005). The mice were divided into 3 groups. groups, with 20 mice in each group: A, control group with normal saline; B, prophylactic intraperitoneal injection of anti-human Pear1 monoclonal antibody (including LF2 or hLF105 antibody) 0.5 mg/kg, once a week; C, prophylactic intraperitoneal injection of anti-human Pear1 monoclonal antibody 1 mg/kg, once a week. After the mice were euthanized at 2 time points of 2 weeks and 4 weeks, an inverted “U”-shaped incision was selected to enter the abdomen, avoiding the original surgical incision. […] And the degree of adhesion in the peritoneal adhesion model was evaluated.
(§2) For fibroblast-specific Pear1 knockout mice, a peritoneal adhesion model was used to form a sham operation on the mice. The model preparation and animal grouping were as described above.
The formation of tissue adhesion depends on the synthesis of collagen and hydroxyproline is the precursor of collagen synthesis. […]

[3] = tested on: humanized Pear1 mice; experiment: Subcutaneous mucosal adhesion model, HE and Masson staining at wounded site; format: in vivo; conditions: 5 micrograms at the wounded site every 7 days; 14th day; versus control group
Source text: Mice were anesthetized by intraperitoneal injection of pentobarbital sodium. The hair is depilated and sterilized, and the skin is excised. A thin layer of bonding agent was applied to one side of the silicone plate to fix the wound concentrically with a clamping board. Each clamping board was sutured at regular intervals with eight stitches to secure it to the intact tissue around the wound, preventing contraction of the wound edges. Sterile dressings were cut into circular shapes and attached to the silicone board for protecting the wound, preventing the animals from scratching or chewing. The anti-human Pear1 monoclonal antibody was […].
Mice were anesthetized using isoflurane, maintaining a flow of 2% isoflurane. The sterile dressings on the silicone board were peeled off (or not peeled off). Pictures were taken at the wounded sites next to the fixed position and scale bar. If necessary, sterile dressings can be reapplied. Image J was used to process the photos. The wounded area can be calculated according to the circled area by the scale.
[…] were fixed in 4% paraformaldehyde for 48 hours, after paraffin embedding, a semi-automatic rotary slicing machine (Leica; rm2235 and cm1950) was used for slicing, dewaxing is carried out at room temperature, gradient ethanol is used for rehydration, HE and Masson staining were then performed.
Subsequently, in order to detect the role of targeting Pear1 in inhibiting adhesion formation in vivo, the inventors constructed an adhesion model in humanized Pear1 mice, and at the same time instilled anti-human Pear1 monoclonal antibodies (including LF2 or hLF105) each at a dose of 5 micrograms at the wounded site, with once administration every 7 days. On the 14th day, the subcutaneous mucosal tissue at the wounded site was removed, stained with HE and Masson, and photographed under a microscope. The thickness of the subcutaneous mucosa and skin and the area of collagen were counted by Image J software for indicating the formation of adhesions.

[4] = tested on: subcutaneous mucosal fibroblasts; experiment: TGFβ activated mucosal fibroblasts treated with antibody: hydroxyproline in supernatant and QPCR of Col7a1, ACTA2; format: cell-based, humanized Pear1 mice; conditions: 1 μg/mL antibody, 10 ng/mL TGFβ, 48 hours; versus control group
Description: After the treatment of starvation in cultured mucosal or subcutaneous derived fibroblasts for 12 hours, 1 μg/mL anti-human Pear1 monoclonal antibody (including LF2 antibody or hLF105 antibody) was added separately to treat the cells. After 30 minutes, 10 ng/mL TGFβ was added to treat the cells for 48 hours, then the cell supernatant was collected. The content of hydroxyproline was detected using the hydroxyproline detection kit of Nanjing Jiancheng Biology Co., Ltd. according to the instructions.
Mucosal fibroblasts in Method 5 were collected. Total mRNA was extracted by Trizol method (Invitrogen, Carlsbad, CA) according to standard protocols. Complementary DNA was synthesized using reverse transcriptase (Takara). ABI7000 Real-time PCR instrument (Life Technologies) was used to detect gene expression and the PCR primer sequences are shown in Table 5. The 18sRNA gene was used as an internal reference.
To further investigate the role of targeting Pear1 in inhibiting mucosal fibroblast activation, subcutaneous mucosal fibroblasts were isolated from humanized Pear1 mice and cultured in vitro. TGFβ activated fibroblasts were treated with anti-human Pear1 monoclonal antibodies (including LF2 or hLF105) for 48 hours, and the supernatants were collected to detect the content of hydroxyproline. The cells were collected for QPCR to detect the expression levels of extracellular matrix proteins such as collagen 7a1 (Col 7a1) and smooth muscle actin a2 (ACTA2) to characterize fibroblast activation and collagen synthesis.

[5] = tested on: humanized Pear1 mice; experiment: Peritoneal adhesion model, indicators related to adhesion (immunohistochemistry or RT-PCR); format: in vivo; conditions: versus control group
Source text: as §1, §2
Immunohistochemistry or RT-PCR was used to measure some indicators related to adhesion formation to reflect the severity of adhesion, such as: fibrinogen (FIB), α-smooth actin (α-SMA), MMPs/TIMPs, transforming growth factor (TGF-β1), vascular endothelial growth factor (VEGF).

[6] = 0.5 mg/kg intraperitoneal once a week, 2 weeks (n = 8)
[7] = 0.5 mg/kg intraperitoneal once a week, 4 weeks (n = 8)
[8] = 1.0 mg/kg intraperitoneal once a week, 2 weeks (n = 8)
[9] = 1.0 mg/kg intraperitoneal once a week, 4 weeks (n = 8)

Molecule	BhatiaDS score [1, 6]	BhatiaDS score [1, 7]	BhatiaDS score [1, 8]	BhatiaDS score [1, 9]	BhatiaDS score compared with the control group ([1]; versus control group, especially in the high-dose group (1.0 mg/kg))	hydroxyproline content in tissues [2]	collagen deposition in the subcutaneous mucosa at wounded sites (Masson staining) [3]	dermal thickness at wounded sites (HE staining) [3]	fibroblasts at wounded sites (HE staining) [3]	ability to synthesize extracellular matrix [4]	activation of fibroblasts [4]	indicators related to adhesion (FIB, α-SMA, MMPs/TIMPs, TGF-β1, VEGF) [5]
hLF-N55Q: humanized anti-human Pear1 antibody; VH SEQ ID NO: 13, VL SEQ ID NO: 22 (antibody, V domains shown) VH: QVQLVQSGAEVKKPGASVKVSCKASGYTFTGYPMNWVRQAPGKRLEWMGVINPYQGGTSYNQKFKGRATLTVDTSASTAYMELSSLRSEDTAVYYCARGGVRPFAYWGQGTLVTVSS VL: DIQMTQSPSSLSASVGDRVTITCKASEDIYNRLAWYQQKPGKAPKLLISGATSLETGVPSRFSGSGSGNDFTLTISSLQPEDFATYYCQQYWSTPTFGQGTKLEIK	II (grade II: above-mentioned area ratio≥50%, easy for blunt dissection)	I (grade I: adhesive area of the area treated in the caecums of vermiform/total area of the treated area<50%, easy for blunt separation)	III	I (grade I: adhesive area of the area treated in the caecums of vermiform/total area of the treated area<50%, easy for blunt separation)								
hLF110: humanized anti-human Pear1 antibody; VH SEQ ID NO: 9, VL SEQ ID NO: 23 (antibody, V domains shown) VH: QVQLVQSGAEVKKPGASVKVSCKASGYTFTGYPMNWVRQAPGQNLEWMGVINPYNGGTSYNQKFKGRVTLTVDKSASTAYMELSSLRSEDTAVYYCARGGVRPFAYWGQGTLVTVSS VL: DIQMTQSPSSLSASVGDRVTITCKASEDIYNRLAWYQQKPGNAPKLLISGATSLETGVPSRFSGSGSGNDFTLTISSLQPEDFATYYCQQYWSTPTFGQGTKLEIK	I (grade I: adhesive area of the area treated in the caecums of vermiform/total area of the treated area<50%, easy for blunt separation)	0	III	I (grade I: adhesive area of the area treated in the caecums of vermiform/total area of the treated area<50%, easy for blunt separation)								
hLF107: humanized anti-human Pear1 antibody; VH SEQ ID NO: 8, VL SEQ ID NO: 24 (antibody, V domains shown) VH: QVQLVQSGAEVKKPGASVKVSCKASGYTFTGYPMNWVRQAPGKRLEWMGVINPYNGGTSYNQKFKGRATLTVDTSASTAYMELSSLRSEDTAVYYCARGGVRPFAYWGQGTLVTVSS VL: DIQMTQSPSSLSASVGDRVTITCKASEDIYNRLAWYQQKPGKAPKLLISGATSLETGVPSRFSGSGSGNDYTLTISSLQPEDFATYYCQQYWSTPTFGQGTKLEIK	II (grade II: above-mentioned area ratio≥50%, easy for blunt dissection)	I (grade I: adhesive area of the area treated in the caecums of vermiform/total area of the treated area<50%, easy for blunt separation)	IV	II (grade II: above-mentioned area ratio≥50%, easy for blunt dissection)								
LF2: anti-human Pear1 monoclonal antibody; VH SEQ ID NO: 1, VL SEQ ID NO: 16 (antibody, V domains shown) VH: EVQLQQSGPELVKPGASMKISCKASGYSFTGYPMNWVRQSHVKNLEWIGVINPYNGGTSYNQKFKGKATLTVDKSSSTAYIELLSLTSDDSAVYYCARGGVRPFAYWGQGTLVTVSA VL: DIQMTQTSSSFSVSLGDRVTITCKASEDIYNRLAWYQQKPGNAPRLLISGATSLETGVPSRFSGSGSGNDYTLSITSLQTEDVATYYCQQYWSTPTFGAGTKLELQ	I (grade I: adhesive area of the area treated in the caecums of vermiform/total area of the treated area<50%, easy for blunt separation)		III	I (grade I: adhesive area of the area treated in the caecums of vermiform/total area of the treated area<50%, easy for blunt separation)	significantly lower	significantly lower	less collagen deposition	smaller dermal thickness	fewer fibroblasts	inhibited	inhibited	significantly lower
